From the supplement of paper PMC7877785
± gives the uncertainty stated by the source.

Test: self-splicing fitness, log relative to wild type (ln ratio); higher = more splicing; Tetrahymena group I intron in knt gene, E. coli kanamycin selection, DiMSum; sequences stand for … in CUCUCU…GGAGGGAAAAGUUAUCAGGCAUGCACCUGGUAGCUAGUCUUUAAACCAAUAGAUUGCAUCGGUUUAAAAGGCAAGACCGUCAAAUUGCGGGAAAGGGGUCAACAGCCGUUCAGUACCAAGUCUCAGGGGAAACUUUGAGAUGGCCUUGCAAAGGGUAUGGUAAUAAGCUGACGGACAUGGUCCUAACCACGCAGCCAAGUCCUAAGUCAACAGAUCUUCUGUUGAUAUGGAUGCAGUUCACAGACUAAAUGUCGGUCGGGGAAGAUGUAUUCUUCUCAUAAGAUAUAGUCGGACCUCUCCUUAAUGGGAGCUAGCGGAUGAAGUGAUGCAACACUGGAGCCGCUGGGAACUAAUUUGUAUGCGAAAGUAUAUUGAUUAGUUUUGGAGUACUCGUGGUCG
Summary of the method: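 A randomised library covering all eight P1ex-region intron nucleotides was built with the intron in the knt kanamycin-resistance gene on pET-22b(+) and held in E. coli BL21(DE3). Cells were grown overnight at 37°C or 30°C on LB agar, with or without 25 μg/mL kanamycin, plus 100 μg/mL carbenicillin, 50 μM IPTG and 0.2% rhamnose, and pooled colonies were amplicon-sequenced on an Illumina HiSeq 2500. DiMSum fitness is the error-weighted combination of wild-type-normalised replicate fold changes, kanamycin versus none.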

| Sequence | self-splicing fitness (ln) (30 °C) | self-splicing fitness (ln) (37 °C) |
| --- | --- | --- |
| CGUGAGCAAUAUUACGUUAA | -4 ± 0.31 | -3.55 ± 0.3 |
| CGUGAGCAAUAUUACGUUCC | -3.37 ± 0.31 |  |
| CGUUAGCAAUAUUACGCAAC | -2.61 ± 0.49 | -2.01 ± 0.35 |
| CGUUAGCAAUAUUACGCACA | -1.33 ± 0.17 | -0.0289 ± 0.28 |
| CGUUAGCAAUAUUACGCAGG | -1.3 ± 0.1 | -1.26 ± 0.16 |
| CGUUAGCAAUAUUACGCAGU |  | -2.29 ± 0.37 |
| CGUUAGCAAUAUUACGCAUA |  | -1.37 ± 0.23 |
| CGUUAGCAAUAUUACGCCUC | -3.03 ± 0.49 | -2.48 ± 0.32 |
| CGUUAGCAAUAUUACGCGCC | -2.21 ± 0.39 | -1.05 ± 0.27 |
| CGUUAGCAAUAUUACGGAAG | -1.02 ± 0.12 | -0.829 ± 0.12 |
| CGUUAGCAAUAUUACGGACC | -0.382 ± 0.14 | 0.675 ± 0.16 |
| CGUUAGCAAUAUUACGGAGA | -2.64 ± 0.4 | -1.53 ± 0.43 |
| CGUUAGCAAUAUUACGGAGC | -3.81 ± 0.47 | -1.35 ± 0.47 |
| CGUUAGCAAUAUUACGGCCG | -1.84 ± 0.41 | -0.176 ± 0.35 |
| CGUUAGCAAUAUUACGGGCG | -3.04 ± 0.24 | -2.38 ± 0.3 |
| CGUUAGCAAUAUUACGGUAA | -1.58 ± 0.26 | -0.129 ± 0.28 |
| CGUUAGCAAUAUUACGGUUG | -0.758 ± 0.11 | 0.388 ± 0.13 |
| CGUUAGCAAUAUUACGUACC | -1.39 ± 0.15 | -1.09 ± 0.18 |
| CGUUAGCAAUAUUACGUAGG | -0.104 ± 0.093 | -0.845 ± 0.14 |
| CGUUAGCAAUAUUACGUGUA | -3.37 ± 0.25 | -3.03 ± 0.34 |
| CUAAAGCAAUAUUACGACCA | -2.78 ± 0.23 | 0.487 ± 0.23 |
| CUAAAGCAAUAUUACGAGCC | -1.33 ± 0.18 | -0.475 ± 0.44 |
| CUAAAGCAAUAUUACGAGUG | 0.178 ± 0.047 | 0.456 ± 0.077 |
| CUAAAGCAAUAUUACGAUAA | -2.17 ± 0.14 | -0.422 ± 0.12 |
| CUAAAGCAAUAUUACGAUGU | -3.84 ± 0.18 | -2.58 ± 0.2 |
| CUAAAGCAAUAUUACGCAAC | -3.32 ± 0.29 | -3.03 ± 0.38 |

| Sequence | self-splicing fitness (ln) (30 °C) | self-splicing fitness (ln) (37 °C) |
| --- | --- | --- |
| CUAAAGCAAUAUUACGCAUA | -3.66 ± 0.23 | -2.65 ± 0.24 |
| CUAAAGCAAUAUUACGCAUG | -0.592 ± 0.071 | -0.193 ± 0.089 |
| CUAAAGCAAUAUUACGCUAC | -3.59 ± 0.37 | -2.59 ± 0.26 |
| CUAAAGCAAUAUUACGCUAG | -3.41 ± 0.24 | -1.84 ± 0.13 |
| CUAAAGCAAUAUUACGGAGU | -4.03 ± 0.15 | -3.19 ± 0.23 |
| CUAAAGCAAUAUUACGGGCC | -2.8 ± 0.23 | -1.28 ± 0.2 |
| CUAAAGCAAUAUUACGGGUG | 0.107 ± 0.039 | 0.493 ± 0.064 |
| CUAAAGCAAUAUUACGGUGC | -3.22 ± 0.16 | -3.15 ± 0.25 |
| CUAAAGCAAUAUUACGGUUA | -3.78 ± 0.33 | -2.72 ± 0.25 |
| CUAAAGCAAUAUUACGUAAA | -2.81 ± 0.14 | -3.36 ± 0.26 |
| CUAAAGCAAUAUUACGUAUC | -3.77 ± 0.18 | -2.22 ± 0.22 |
| CUAAAGCAAUAUUACGUCUG | 0.155 ± 0.049 | 0.458 ± 0.071 |
| CUAAAGCAAUAUUACGUGAC | -1.12 ± 0.051 | -0.411 ± 0.078 |
| CUAAAGCAAUAUUACGUUAA | -3.6 ± 0.11 | -2.53 ± 0.15 |
| CUACAGCAAUAUUACGAAAG | -1.42 ± 0.078 | -0.755 ± 0.094 |
| CUACAGCAAUAUUACGAAUA | -3.07 ± 0.41 | -2.21 ± 0.27 |
| CUACAGCAAUAUUACGAGCA | -2.77 ± 0.16 | -2.56 ± 0.23 |
| CUACAGCAAUAUUACGAGGU | -2.63 ± 0.13 | -3.03 ± 0.27 |
| CUACAGCAAUAUUACGAUAU | -3.89 ± 0.22 | -1.4 ± 0.22 |
| CUACAGCAAUAUUACGAUUG | -0.678 ± 0.055 | -0.0365 ± 0.078 |
| CUACAGCAAUAUUACGCCAU | -3.16 ± 0.12 | -2.45 ± 0.14 |
| CUACAGCAAUAUUACGCGAA | -2.83 ± 0.18 | -3.89 ± 0.31 |
| CUACAGCAAUAUUACGGAAU | -4.13 ± 0.32 | -3.3 ± 0.26 |
| CUACAGCAAUAUUACGGCGU | -3.49 ± 0.13 | -2.94 ± 0.19 |
| CUACAGCAAUAUUACGGCUA | -3.25 ± 0.25 | -3.02 ± 0.22 |
| CUACAGCAAUAUUACGGGCU | -4.53 ± 0.29 | -2.97 ± 0.29 |

| Sequence | self-splicing fitness (ln) (30 °C) | self-splicing fitness (ln) (37 °C) |
| --- | --- | --- |
| CUACAGCAAUAUUACGGGUA | -3.25 ± 0.19 | -2.05 ± 0.12 |
| CUACAGCAAUAUUACGGGUG | -0.249 ± 0.037 | -0.538 ± 0.053 |
| CUACAGCAAUAUUACGUAUA | -2.73 ± 0.2 | -1.13 ± 0.18 |
| CUACAGCAAUAUUACGUCAA | -3.91 ± 0.19 | -1.82 ± 0.14 |
| CUACAGCAAUAUUACGUCUU | -4.14 ± 0.24 | -3.48 ± 0.25 |
| CUACAGCAAUAUUACGUGAG | -0.958 ± 0.058 | -0.926 ± 0.086 |
| CUACAGCAAUAUUACGUGGG | -4.01 ± 0.2 | -2.61 ± 0.15 |
| CUACAGCAAUAUUACGUUCC | -2.48 ± 0.22 |  |
| CUAGAGCAAUAUUACGAAUU | -3.78 ± 0.28 | -1.95 ± 0.29 |
| CUAGAGCAAUAUUACGAGAC | -2.63 ± 0.29 | -0.86 ± 0.3 |
| CUAGAGCAAUAUUACGAGUG | -0.496 ± 0.067 | -0.868 ± 0.085 |
| CUAGAGCAAUAUUACGAUUU | -3.17 ± 0.2 | -1.48 ± 0.25 |
| CUAGAGCAAUAUUACGCAAU | -3.77 ± 0.22 | -3.08 ± 0.34 |
| CUAGAGCAAUAUUACGCAGC | -3.55 ± 0.38 | -3.32 ± 0.46 |
| CUAGAGCAAUAUUACGCAUG | -0.244 ± 0.092 | 0.532 ± 0.1 |
| CUAGAGCAAUAUUACGCGGA |  | -1.33 ± 0.36 |
| CUAGAGCAAUAUUACGCGUU | -4.14 ± 0.24 | -2.46 ± 0.27 |
| CUAGAGCAAUAUUACGGAGC |  | -3.62 ± 0.34 |
| CUAGAGCAAUAUUACGGGAA | -4.25 ± 0.35 | -2.45 ± 0.45 |
| CUAGAGCAAUAUUACGGGAC | -2.5 ± 0.16 | -1.05 ± 0.18 |
| CUAGAGCAAUAUUACGGUUG | -0.207 ± 0.056 | -0.329 ± 0.074 |
| CUAGAGCAAUAUUACGGUUU | -4.03 ± 0.31 |  |
| CUAGAGCAAUAUUACGUACU | -3.83 ± 0.3 | -3.27 ± 0.43 |
| CUAGAGCAAUAUUACGUCGA | -3.94 ± 0.28 | -2.34 ± 0.28 |
| CUAGAGCAAUAUUACGUGGG | -0.857 ± 0.13 | -0.906 ± 0.16 |
| CUAGAGCAAUAUUACGUUAC | -2.88 ± 0.27 |  |
